Measured values as given in patent US5962246A.

Substrate: O=c1ccn([C@H]2C[C@H](O)[C@@H](COP(=O)(O)OP(=O)(O)OP(=O)(O)O)O2)c(=O)[nH]1
Assay: purified protein, by the assay type
Settings: other: substrate dUTP, 20 mM Tris-HCl pH 7.5, 37° C., purified recombinant DUT-N

B1: recombinant human dUTPase nuclear isoform DUT-N (Seq. ID No. 2), expressed in baculovirus/Sf21 insect cells (Homo sapiens) (protein)
chain: MPCSEETPAISPSKRARPAEVGGMQLRFARLSEHATAPTRGSARAAGYDLYSAYDYTIPPMEKAVVKTDIQIALPSGCYGRVAPRSGLAAKHFIDVGAGVIDEDYRGNVGVVLFNFGKEKFEVKKGDRIAQLICERIFYPEIEEVQALDDTERGSGGFGSTGKN
- Km: 2.5 µM
